Key:
[1] = biological target: T1, human VISTA expressed on cells (human, UniProt Q9H7M9 33-295); assay: cell-based or functional assay
T1 sequence: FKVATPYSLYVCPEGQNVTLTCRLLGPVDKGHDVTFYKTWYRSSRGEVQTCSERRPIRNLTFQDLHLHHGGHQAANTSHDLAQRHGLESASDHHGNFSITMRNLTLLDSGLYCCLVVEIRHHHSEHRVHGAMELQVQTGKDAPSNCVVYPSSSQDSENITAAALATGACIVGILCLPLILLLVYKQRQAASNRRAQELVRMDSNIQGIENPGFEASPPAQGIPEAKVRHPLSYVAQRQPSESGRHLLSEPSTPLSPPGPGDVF

[2] = biological target: T1, human VISTA expressed on cells; assay: cell-based or functional assay; remark: listed apart in the source
[3] = biological target: T1, human VISTA expressed on cells; assay: cell-based or functional assay; remark: listed apart in the source
[4] = biological target: T2, human VISTA extracellular domain (human, UniProt Q9H7M9 33-194); assay: ProteOn SPR
T2 construct: also called SB0361 (human); human VISTA ECD
T2 sequence: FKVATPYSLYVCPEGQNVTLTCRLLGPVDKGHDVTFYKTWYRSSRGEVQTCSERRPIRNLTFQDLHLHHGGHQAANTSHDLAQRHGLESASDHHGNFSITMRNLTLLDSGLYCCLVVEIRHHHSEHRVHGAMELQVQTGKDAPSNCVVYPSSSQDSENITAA
Method: (§1) Antibodies were captured on ProteOn chips using anti-IgG Fc coated surfaces. […] The antigens were allowed to bind/associate to the antibody-coated chips for 4 minutes after which time dissociation was monitored for 30 minutes. Chips were regenerated with two treatments of 100 mM phosphoric acid for 18 seconds. All experiments were run at 25° C. and data was fit to 1:1 Langmuir binding model.

[5] = biological target: T3, cynomolgus VISTA extracellular domain (cynomolgus, UniProt A0A7N9IB00 33-194); assay: ProteOn SPR
T3 construct: extracellular domain; also called SB0361 (cyno); cyno VISTA ECD
T3 sequence: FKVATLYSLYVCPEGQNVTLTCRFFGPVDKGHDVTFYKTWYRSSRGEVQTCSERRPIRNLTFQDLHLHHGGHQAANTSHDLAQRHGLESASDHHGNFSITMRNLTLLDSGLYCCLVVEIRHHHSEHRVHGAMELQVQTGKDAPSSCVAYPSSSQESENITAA
Method: as §1

Row | Binder | IC50, IFN-γ in the MLR [1] | IC50, IFN-γ in the SEB assay [2] | EC50 IFNγ production, MLR [3] [µg/mL] | Kd [4] [nM] | koff [4] [s⁻¹] | kon [4] [M⁻¹ s⁻¹] | Kd [5] [nM] | koff [5] [s⁻¹] | kon [5] [M⁻¹ s⁻¹]
1 | VSTB116 (antibody, human IgG1, kappa, V domains shown) VH: QVQLVQSGAEVKKPGSSVKVSCKASGGTFSSYAISWVRQAPGQGLEWMGGIIPIFGTANYAQKFQGRVTITADESTSTAYMELSSLRSEDTAVYYCARSSYGWSYEFDYWGQGTLVTVSS VL: DIQMTQSPSSLSASVGDRVTITCRASQSINTNLNWYQQKPGKAPKLLIYAASSLQSGVPSRFSGSGSGTDFTLTISSLQPEDFATYYCQQARDTPITFGQGTKVEIKR | -0.16 log10 of antibody concentration | -0.35 log10 of antibody concentration | 0.69 | – | – | – | – | – | –
2 | VSTB74 (antibody, V domains shown) VH: QMQLVQSGPEVKKPGTSVKVSCKASGYIFTDYNIDWVRQARGQRLEWIGDINPKYDSTRYNQKFKGRVTITRDMSTSTAYMELSSLRSEDTAVYYCAADGSSAMDYWGQGTTVTVSS VL: DIVMTQSPDSLAVSLGERATINCKSSQSLLNSGHQKNYLAWYQQKPGQPPKLLIYGASTRESGVPDRFSGSGSGTDFTLTISSLQAEDVAVYYCQNDHRYPLTFGQGTKLEIKR | – | – | – | 0.562 | 0.000223 | 397000 | 0.347 | 0.000144 | 415000
3 | VSTB103 (antibody, V domains shown) VH: EVQLVQSGAEVKKPGESLKISCKGSGYSFTSYWIGWVRQMPGKGLEWMGIIYPGDSDTRYSPSFQGQVTISADKSISTAYLQWSSLKASDTAMYYCARDDALYGGYYLDYWGQGTLVTVSS VL: not shown | – | – | – | 0.636 | 0.000336 | 528000 | 0.302 | 0.00018 | 598000
4 | VSTB95 (antibody, human IgG1, kappa, V domains shown) VH: EVQLVESGGGLVQPGGSLRLSCAASGFTFRNYGMSWVRQAPGKGLEWVASIISGGSYTYYPDSVKGRFTISRDNAKNSLYLQMNSLRAEDTAVYYCARIYDHDGDYYAMDYWGQGTTVTVSS VL: DIVMTQSPLSLPVTPGEPASISCRSSQSIVHSNGNTYLEWYLQKPGQSPQLLIYKVSNRFSGVPDRFSGSGSGTDFTLKISRVEAEDVGVYYCFQGSHVPWTFGQGTKLEIKR | 0.22 log10 of antibody concentration | 0.05 log10 of antibody concentration | 1.67 | – | – | – | – | – | –
5 | VSTB53 (antibody, human IgG1, kappa, V domains shown) VH: QVQLVQSGAEVKKPGASVKVSCKASGYTFTHYTIHWVRQAPGQGLEWMGYIIPSSGYSEYNQKFKDRVTMTRDTSTSTVYMELSSLRSEDTAVYYCARGAYDDYYDYYAMDYWGQGTLVTVSS VL: DIVMTQSPLSLPVTPGEPASISCRSSQTIVHSNGNTYLEWYLQKPGQSPQLLIYKVSNRFSGVPDRFSGSGSGTDFTLKISRVEAEDVGVYYCFQASHVPWTFGQGTKLEIKR | 0.27 log10 of antibody concentration | -1.05 log10 of antibody concentration | 1.88 | – | – | – | – | – | –
6 | VSTB50 (antibody, human IgG1, kappa, V domains shown) VH: QVQLVQSGSELKKPGASVKVSCKASGYTFTNYGLNWVRQAPGQGLEWMGWINPYTGEPTYADDFKGRFVFSLDTSVSTAYLQICSLKAEDTAVYYCAREGYGNYIFPYWGQGTLVTVSS VL: DIVMTQTPLSLSVTPGQPASISCRASESVDTYANSLMHWYLQKPGQPPQLLIYRASNLESGVPDRFSGSGSGTDFTLKISRVEAEDVGVYYCQQTNEDPRTFGQGTKLEIKR | 0.06 log10 of antibody concentration | 1.69 log10 of antibody concentration | 1.14 | – | – | – | – | – | –
7 | VSTB60 (antibody, human IgG1, kappa, V domains shown) VH: QVQLVQSGSELKKPGASVKVSCKASGYTFTNYGMTWVRQAPGQGLEWMGWINTYTGESTYADDFKGRFVFSLDTSVSTAYLQICSLKAEDTAVYYCARDYYGIYVSAYWGQGTLVTVSS VL: DIVMTQTPLSLSVTPGQPASISCRASESVDNYANSFMHWYLQKPGQSPQLLIYRASNLESGVPDRFSGSGSGTDFTLKISRVEAEDVGVYYCQQSHEDPYTFGQGTKLEIKR | 0.4 log10 of antibody concentration | – | 2.48 | – | – | – | – | – | –
